Here are results for 6 substances from patent US20250320281A1.

The term IC50 denotes the concentration that gives 50% inhibition. A higher IC50 goes with weaker potency in that assay.

Common to all, as to assay: cell-based or functional assay
Test [1] addresses HIV-1 Env of isolate 92UG031 (HIV-1).
Test [2] deals with HIV-1 Env of isolate MGRM-AG-008 (subtype AG) (HIV-1).
Test [3] deals with HIV-1 Env of isolate MG RM-D-014 (HIV-1).
Test [4] addresses HIV-1 Env of isolate MGRM-A-007 (subtype A) (HIV-1).
Test [5] addresses HIV-1 envelope glycoprotein (Env) of isolate MGRM-C-025 (HIV-1).
Test [6] addresses HIV-1 Env of isolate MG RM-D-022 (HIV-1).
The target of test [7] is HIV-1 Env of isolate APV-6 (HIV-1).
The target in test [8] is HIV-1 Env of isolate MGRM-A-005 (HIV-1).
Test [9] has as its target HIV-1 Env of isolate MG RM-D-005 (HIV-1).
Test [10] deals with HIV-1 envelope glycoprotein (Env) of isolate MGRM-C-009 (HIV-1).
Test [11] has as its target HIV-1 Env of isolate MGRM-Chronic-B-011 (subtype B) (HIV-1).
In test [12] the target is HIV-1 Env of isolate MGRM-AE-002 (subtype AE) (HIV-1).
For test [13], the target named is HIV-1 Env of isolate CMU02 (subtype AE) (HIV-1).
Test [14] concerns the target HIV-1 Env of isolate MG RM-D-001 (HIV-1).
The target of test [15] is HIV-1 Env of isolate NL43 (subtype B) (HIV-1).
The target in test [16] is HIV-1 Env of isolate 92RW008 (HIV-1).
The target of test [17] is HIV-1 envelope glycoprotein (Env) of isolate MGRM-C-008 (HIV-1).
Test [18] addresses HIV-1 MGRM-C-026 Env (pseudovirus, clade C) (HIV-1).
Test [19] has as its target HIV-1 93UG077 Env (pseudovirus) (HIV-1).
In test [20] the target is HIV-1 MGRM-A-010 Env (pseudovirus, clade A) (HIV-1).
In test [21] the target is HIV-1 Env of isolate MGRM-D-001 (clade D), on pseudovirus (HIV-1).

Chain of 5345_I01 (PGT-137) (antibody) (VH): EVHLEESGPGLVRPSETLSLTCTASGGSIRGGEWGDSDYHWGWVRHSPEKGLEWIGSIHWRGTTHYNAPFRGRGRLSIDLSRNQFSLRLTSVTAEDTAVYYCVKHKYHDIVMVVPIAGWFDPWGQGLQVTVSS
Chain of 5345_I01 (PGT-137) (antibody) (VL): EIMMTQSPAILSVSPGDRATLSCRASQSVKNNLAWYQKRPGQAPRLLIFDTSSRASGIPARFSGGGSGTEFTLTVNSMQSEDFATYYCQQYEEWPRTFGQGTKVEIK
Chain of 5329_C19 (PGT-136) (antibody) (VH): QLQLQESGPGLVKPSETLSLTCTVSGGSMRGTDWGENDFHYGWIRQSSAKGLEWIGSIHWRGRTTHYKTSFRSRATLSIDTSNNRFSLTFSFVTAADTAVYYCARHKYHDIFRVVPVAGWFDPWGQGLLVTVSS
Chain of 5329_C19 (PGT-136) (antibody) (VL): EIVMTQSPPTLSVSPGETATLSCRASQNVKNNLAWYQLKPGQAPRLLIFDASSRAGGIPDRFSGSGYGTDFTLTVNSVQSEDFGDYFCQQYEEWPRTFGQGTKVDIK

In the case of 5114_A19 (PGT-128) (antibody), the IC50 in [1] is above 50 µg/mL; in test [8], above 50 µg/mL; in test [16], 0.003 µg/mL. The IC50 (µg/mL), pseudovirus neutralization in test [2] is 0.668 µg/mL; in test [3], 0.013 µg/mL; in test [4], above 50 µg/mL; in test [5], 10.5 µg/mL; in test [6], above 50 µg/mL; in test [9] it was 0.051 µg/mL. Besides, the IC50 (µg/mL), pseudovirus neutralization is above 50 µg/mL in [10]; 0.522 µg/mL in [12]; above 50 µg/mL in test [13]; 0.138 µg/mL in test [14]; 0.373 µg/mL in [17]. In test [7], this substance returned a neutralization IC50 of 0.007 µg/mL. Also, the values for the IC50 neutralization in test [11] and in test [15] were 0.02 µg/mL and above 50 µg/mL, respectively.
For the substance 5136_H01 (PGT-131) (antibody), the IC50 was above 50 µg/mL in test [1], above 50 µg/mL in [8] and 1.01 µg/mL in test [16]. The IC50 (µg/mL), pseudovirus neutralization in test [2] was above 50 µg/mL; in test [3], 0.516 µg/mL; in test [4] it was above 50 µg/mL; in [5], above 50 µg/mL; in test [6], above 50 µg/mL; in test [9], above 50 µg/mL. For the same substance, the IC50 (µg/mL), pseudovirus neutralization in test [10], in test [12], in test [13], in test [14] and in [17] was above 50 µg/mL in each case. Besides, in test [7], the neutralization IC50 was above 50 µg/mL. Moreover, the results for the IC50 neutralization in test [11] and in test [15] were 6.47 µg/mL and above 50 µg/mL, respectively.
On to 5147_N06 (PGT-130) (antibody), for which the IC50 is above 50 µg/mL in test [1], above 50 µg/mL in test [8] and 0.089 µg/mL in test [16]. Moreover, the IC50 neutralization in [18] was 0.0173 µg/mL; in test [20] it was 0.0054 µg/mL; in [11] it was 0.153 µg/mL; in test [15] it was above 50 µg/mL. In addition, the Neutralization by PGT-130, IC50 in [19] was above 10 µg/mL. Moreover, the Neutralization by PGT-130, IC80 in test [19] was above 10 µg/mL. The substance also displayed a Neutralization by PGT-130, IC90 in test [19] above 10 µg/mL. Also, the Neutralization by PGT-130, IC95 in [19] is above 10 µg/mL. The substance also yielded a neutralization IC50 (pseudovirus) in test [19] above 10 µg/mL. Further, the IC50 (µg/mL), pseudovirus neutralization in [2] is above 50 µg/mL; in test [3] it was 0.061 µg/mL; in [4] it was above 50 µg/mL; in test [5], above 50 µg/mL; in test [6], above 50 µg/mL; in test [9] it was above 50 µg/mL. Also, the IC50 (µg/mL), pseudovirus neutralization is above 50 µg/mL in test [10]; 1.53 µg/mL in test [12]; above 50 µg/mL in [13]; above 50 µg/mL in [14]; 7.28 µg/mL in [17]. The same substance came in with a neutralization IC50 in [7] above 50 µg/mL. Besides, the IC50, pseudovirus neutralization in [21] was above 10 µg/mL.
5329_C19 (PGT-136) (antibody): the IC50 in [1], in test [8] and in test [16] was above 50 µg/mL throughout. Besides, the IC50 neutralization in test [18] is 0.0065 µg/mL; in test [20], above 10 µg/mL; in test [11], above 50 µg/mL; in test [15], 27.7 µg/mL. Further, the IC50 (neutralizing activity, pseudovirus) in test [19] was above 10 µg/mL. The IC50 (µg/mL), pseudovirus neutralization in test [2], in [3], in [4], in test [5], in [6] and in test [9] was above 50 µg/mL throughout. Moreover, the IC50 (µg/mL), pseudovirus neutralization in [10], in test [12], in [13], in test [14] and in test [17] was above 50 µg/mL in each case. This substance showed a neutralization IC50 in test [7] above 50 µg/mL. Moreover, the IC50, pseudovirus neutralization in test [21] is above 10 µg/mL.
Consider 5343_B08 (PGT-135) (antibody), for which the results for the IC50 in [1], in test [8] and in test [16] were above 50 µg/mL, above 50 µg/mL and 1.42 µg/mL, respectively. Also, the IC50 neutralization was 0.0123 µg/mL in test [18], above 10 µg/mL in test [20], above 50 µg/mL in test [11] and 8.03 µg/mL in test [15]. In test [19], the IC50 (neutralizing activity, pseudovirus) was above 10 µg/mL. Moreover, the IC50 (µg/mL), pseudovirus neutralization in [2] was above 50 µg/mL; in test [3], 2.21 µg/mL; in test [4], above 50 µg/mL; in [5], above 50 µg/mL; in test [6], above 50 µg/mL; in test [9], above 50 µg/mL. Also, the IC50 (µg/mL), pseudovirus neutralization in [10], in [12], in test [13], in test [14] and in [17] was above 50 µg/mL in each case. The substance also registered a neutralization IC50 in [7] above 50 µg/mL. This substance came in with an IC50, pseudovirus neutralization in test [21] above 10 µg/mL.
In the case of 5345_I01 (PGT-137) (antibody), the IC50 in test [1] was above 50 µg/mL; in test [8], above 50 µg/mL; in [16] it was 0.148 µg/mL. Further, the IC50 (µg/mL), pseudovirus neutralization in [2], in [3], in test [4], in [5], in [6] and in test [9] was above 50 µg/mL each time. The IC50 (µg/mL), pseudovirus neutralization in test [10], in test [12], in [13], in test [14] and in [17] was above 50 µg/mL in each case. In test [7], this substance yielded a neutralization IC50 above 50 µg/mL. Moreover, the IC50 neutralization in test [11] is above 50 µg/mL; in test [15], 17.4 µg/mL.
